Assay: yeast display, Sf9 membrane polyspecificity reagent, FACS + sequencing; frameworks hold sequencing errors
Procedure, shortened: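 Galactose-induced (36–48 hours) yeast carrying a synthetic nanobody display library were exposed to 10% biotinylated, detergent-solubilized Sf9 membrane reagent at 4 °C for 1 hour. FACS followed streptavidin microbead enrichment, using low and high (top ~1%) gates for expression (anti-HA) and reagent binding (streptavidin). Colony PCR, MiSeq 2 × 250 sequencing and CDR-length filtering followed. Labels for polyreactivity reflect the gate of origin.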

Row | Sequence | polyreactivity (PSR sort gate)
1 | QVQLVESGGGLVHAGGSLRLSCAASGRIFFRYAMGWYRQSPGKEREFVATITWSGGRTHYADSVKGRFTISRDNAKNTVYLQMNSLKPEDTAVYYCAASYHRYAFDYWGQGTQVTVSS | high polyreactivity
2 | QVQLVESGGGLVHAGGSLRLSCAASGRIFQYYAMGWYRQAPGKERELVAAIDQSGDTTYYADSVKGRFTISRDNAKNTVYLQMNSLKPEDTAVFYCAAGYDWAYHWVPQWMYFWGQGTQVTVSS | low polyreactivity
3 | QVQLVESGGGLVHAGGSLRLSCAASGRIFTPYAMGWYRQAPGKERELVAAISGRGGSTYYADSVKGRFTISRDNAKNTVYLQMNSLKPEDTAVYYCAATYFYVYDYWLDYWGQGTQVTVSS | high polyreactivity
4 | QVQLVESGGGLVHAGGSLRLSCAASGRIFYPYTMGWYRQAPGKERELVAAISIRGTSTYYADSVKGRFTISRDNAKNTVYLQMNSLKPEDTAVYYCAALYVGYDYWGQGTQVTVSS | high polyreactivity
5 | QVQLVESGGGLVHAGGSLRLSCAASGRIYRGNAMGWYRQAPGKERELVARITGNDGDTYYADSVKGRFTISRDNEKNTVYLQMKSLKPEDTAVYYCATDTSSYRSRYYYWGQGTQVTVSS | low polyreactivity
6 | QVQLVESGGGLVHAGGSLRLSCAASGRTFNGNAMGWYRQAPGKERELVAVITGSGGSTYYADSVKGRYTISRDNAKNTVYLQMNSLKPEDTAVYYCNKKVQRRSWYDYWGQGTQVTVSS | low polyreactivity
7 | QVQLVESGGGLVHAGGSLRLSCAASGSIFCTNVMGWYRQAPGKERELVAAISYSDGSTYYADSVKGRFTISRDNAKNTVYLQMNILKPEDSAVYYCADYLYYYWGGYDYWGQGTQVTVSS | low polyreactivity
8 | QVQLVESGGGLVHAGGSLRLSCAASGSIFDFNAMGWYRQVPGKERELVAAITSGGSTNYADSVKGRFTISRDNAKNTVYLQMNSLKPEDTAVYYCAARPARGASQGGYVRPWWYDSWGQGTQVTVSS | low polyreactivity
9 | QVQLVESGGGLVHAGGSLRLSCAASGSIFQYNAMGWYRQAPGKERELVATISSGGSTNYADSVKGRFTISRDNAKNTVYLQMNSLKPEDTAVYYCAAVVIVFYYAPNYWGDIEYGYWGQGTQVTVSS | low polyreactivity
10 | QVQLVESGGGLVHAGGSLRLSCAASGSIFSIYAMGWYRQAPGTERELVAAITKSGGSTYYADSVKGRFTISRDNAKNTVYLQMNSLKPEDTAVYYCAAEPQHYVGYYYWGQGNQVTVSS | high polyreactivity
11 | QVQLVESGGGLVHAGGSLRLSCAASGSILKYYAMGWYRQAPGKERELVAAITSRGGSTYYADSVKGRFTISRDNAKNTVYLQMNSLKPEDTAVYYCNRVYLGYFRYDYWGQGTQVTVSS | high polyreactivity
12 | QVQLVESGGGLVHAGGSLRLSCAASGSTFGDNAMRLYRQAPGKERELVAVISTAGSTYYADSVKGRFTISRDNAKNTVYLQMNSLKPEDTAVYYCAAAYYVWLYGFWYRRYDYWGQGTQVTVSS | low polyreactivity
13 | QVQLVESGGGLVHAGGSLRLSCAASGSTFRSYAMGWYRQAPGKERELVARISYRTGSTYYADSVKGRFTISRDYAKNTVYLQMNSLKPEDTAVYYCATRGSYVGGLYDYWGQGTQVTVSS | high polyreactivity
14 | QVQLVESGGGLVHAGGSLRLSCAASGSTFYGYTMGWYRQAPGKERELVAVITSGGSTYYADSVKGRFTISRDNAKNTVYLQMNSLKPEDTAVYYCAKRYGYPAYGRPWRIGRTYDYWGQGTQVTVSS | low polyreactivity
15 | QVQLVESGGGLVHAGGSLRLSCAASGSTLGYNVMGWYRQAPGKERELVAAISGDGSTNYADSVKGRFTISRDNAKNTVYLQMNSLKREDTEVYYCNAPFWGYRTSFSYPVVQRFDYWGQGTHVTVSS | low polyreactivity
16 | QVQLVESGGGLVHAGGSLRLSCAASGSTLQVYAMGWYREAPGIERELVAVITFSGGRTYYADSVKGRFTISRDTAKNTVYLQMNSLKPEDTADYYPAARYYWGQGTQVTVSS | high polyreactivity
17 | QVQLVESGGGLVHAGGSLRLSCAASGSTLSYAMGWYRQAPGKERELVAAISRSGGSTYYADSVKGRFTISRDNAKNTVYLQMNSLKPEDTAVYYCAADPYPSYANGGYYWGQGTQVTVSS | high polyreactivity
18 | QVQLVESGGGLVHAGGSLRLSCAASGSTYYGNAMGWYIQAPRKERELVAAINRGGSTYYADSVKGRFTISRDNAKNTVYLQMKSLKPEDTAVYYCAADYEYLPKTRDGYYWGQGTQVTVSS | low polyreactivity
19 | QVQLVESGGGLVHAGGSLRLSCAASGYTFSRNAMGWYRQAPGKERELVAAITGSGGSTYYADSVKGRFTISRDNAKNTVYLQMNSLKPEDTAVYYCATEVKRGYVGFDYWGQGTQVTVSS | low polyreactivity
20 | QVQLVESGGGLVHAGGSLRLSCAAYGFIFYDYVMGWYRQAPGKERELVAAITGSGGGTYYADSVKGRFTISRDNAKNTVYLQMNSLKPDATAVYYCAADFISVYGYEYYYWGQVTQVTVSS | high polyreactivity
21 | QVQLVESGGGLVHAGGSLRLSCAAYGIIFQYYTMGWYRQAPGKERELVASITYDGDSTYYADSVKGRFTISLDNAKNTVYLQMNSLKPEDTALYYCAAVANGFWTYEYWGQGTQVTVSS | low polyreactivity
22 | QVQLVESGGGLVHAGGSLRLSCAAYGRTYGTNAMGWYRQAPVKERELVAAIRRGGSRTYYADSVKGRFTISRDYAKNTVYLPMNSLKPEDTAVYYCAAKLRAYVDPFEYWGQGTQVTVSS | low polyreactivity

Row | Sequence | polyreactivity (PSR sort gate)
23 | QVQLVESGGGLVHAGGSLRLSCADSGRIFYANALGWSRQSPGRERELVAAISSGGSTYYADSVKGRFTSSRDNAKNTVYLQMNSLKPEDTAVYYCAVYTLKKVRPEYDYWGQGTQVTVSS | low polyreactivity
24 | QVQLVESGGGLVHAGGSLRLSCAPSGSTFFTNAMGWYRQAPGKERELVAAITINDGSTFYADSVKGRFTISRDNAKNTVYLQMNSLKQEDTAVYYCNADGVDLYDYWGQGTQVTVSS | low polyreactivity
25 | QVQLVESGGGLVHAGGSLRLSCASSGSTFFTNAMGWYRQAPGKERELVAAITINDGSTFYADSVKGRFTISRDNAKNTVYLQMNSLNPEDTAVYYCNADGVDLYDYWGQCTQVTVSS | low polyreactivity
26 | QVQLVESGGGLVHAGGSLRLSSAASGRTFLSYTMGWYRQAPGKERELVAVISRSGGRTYYADSVKGRFTISRDNATNTVYLQMNSLKPEDTADYYCAADTYRGYDFDYWGQGSQVTVSS | high polyreactivity
27 | QVQLVESGGGLVHAGGSLRLSSAASGSIYYYAMGWYRQAPGKERELVAAITWRGGRTYYADSVKGRFTISRDNAKNNVYLQMNILKPEDTAVYYCNDVAPGKYNHWGQGTQVNVSS | high polyreactivity
28 | QVQLVESGGGLVHAGGSLRLTCAASGLTFAYYAMGWYRQAPGKERELVAAISWNGGRTYNADSVKGRFTISRDNAKNTVYLQMNSLKPEDTAVYYCAAQVTSSFYWGQGTQVTVSS | high polyreactivity
29 | QVQLVESGGGLVHAGGSLRLTCAASGRTYRNGMGWYRQAPGKERELVAAISVSGTRTYYADSVKGRFTISRDNAKNTVYLQMNSLKPEDTAVYYCNADLSPTADDELDYRLVRDDYWGQGTQVTVSS | low polyreactivity
30 | QVQLVESGGGLVHAGGSLSLSCAASGSIFGQYAMGWYRQAPGKERELVAAISYSTDARTYYADSVKGRFTISRDNAKNTVYLQMNSLKPEDTAVYYFNADSYFGYWGQGTQVTVSS | low polyreactivity
31 | QVQLVESGGGLVHAGGSLSLSCAASGYTFPLYAMGRYRQAPGKERELVADNNIGGASTYYADSVKGRFTISRDNAKNTVYLQMNSLKPEDTAVYYCAKEDYDGYFPTFDYDYWGQGTQVTVSS | low polyreactivity
32 | QVQLVESGGGLVHAGRSLRLSCAPSGSTFSIYDMGWSRQAPGKERELVAAISGSGSRTYYADSVKGRFTISRDNAKNTVYLQMNSLKPEDTALYYCAARGRHRDGFDFNYWGQGTQVTVSS | high polyreactivity
33 | QVQLVESGGGLVHPGGRLRLSCAASGRIYKYYVMGWYRQAPGKEREFVAAISGRGGRTYYADSVKGRFTISRDNAKNTVYLQKNSLKPEDTAVYYCATERQDRGPLGYNYWGQGTQVTVSS | high polyreactivity
34 | QVQLVESGGGLVHPGGSLRLSCAASGRTYAVDAMGWYRQAPGKERELVAAISRRGGSTSYADSEKGRFTISRDNAKNTVSLQMNSLKPEDTAVYYCNTDPGKFTPFDYWGQGTQVTVSS | high polyreactivity
35 | QVQLVESGGGLVKAGGILRLSCAASGFNFSSYAMGWYIPAPGKERELVAAISGSGGTTYYADSVKGRFTISRDNAKNTVYLQLNSLKPEDTAVYYCATRLGLVITKYGYDYWGQGTQVTVSS | high polyreactivity
36 | QVQLVESGGGLVKAGGSLLLSCAASGIIFRRNAMGRNIQAPGKERELVAAISSSKGRTYYADSVKGRFTISRDNAKNTVYLQMNSLKPEDTAVYYCTADYDASARGWGQIAYVYWGQGTQVTVSS | low polyreactivity
37 | QVQLVESGGGLVKAGGSLRISCAASGFILGQYAMGWYRQAPGKERELVAAISRSSSTTYADSVKGRFTISRDKAKNTVYLQMNSLNPEDTAVYYCAAYYWYVTYFRREIAYEYWGQGTQVTVSS | low polyreactivity
38 | QVQLVESGGGLVKAGGSLRITCAASGRIFGYYPMGWYRPATGKESELVAAITRRGGITYYADSVKGRFTISRDNAKNTVYLPMNCLKPADTAVYYRAADRYWGYDYWGQGTQVTGSS | high polyreactivity
39 | QVQLVESGGGLVKAGGSLRLSCAASGFSFFGYAMGWYRQAPGKERELVAAIDNGGSTNYADSVKGRFTISRDNAKNTVYLQMNSLKPEDTAVYYCNTDVDYAILDYWGQGTQVTVSS | low polyreactivity
40 | QVQLVESGGGLVKAGGSLRLSCAASGFTFWRNTMGWYRQAPGKERELVAAIDRSGSSTYYADSVKGRFTISRDNATNNVYFQMNSLKPEDTAVYYCAADHTYFTAYGDYWGQGTQVTVSS | low polyreactivity
41 | QVQLVESGGGLVKAGGSLRLSCAASGFTLSRYTKGWYRQAPGKEWELVAAISWSGGSTYYADSVKGRFTISRDNAKNTVYLQMNSLKPEDSAVYYCAARYHYYGLYTSGDYYWGQGTQVTVSS | high polyreactivity
42 | QVQLVESGGGLVKAGGSLRLSCAASGIIMSYYVMGWYIQAPGKERELVAAISLRGGTTYYADSEKGRFTISRDNAKNTVYLQKNSLKPEDTAVYYCAAQRPGFGYEYDYWGQGTQVTVSS | high polyreactivity
43 | QVQLVESGGGLVKAGGSLRLSCAASGITCTKNAMGWYRQAPGKERELVAAISTSGGSTYYADSVKGRFTISRDTAKNTVYLQMTSLKPEDTAVYYCAARAVIRGGRYFYWGQGTLVTVSS | high polyreactivity

From the nanobody polyreactivity screen of Harvey et al. (2022)
